Experimental data taken from patent US20230242633A1 (KANAPH THERAPEUTICS, published 2023).

Key:
mouse C3b [1] = target: T1, mouse C3b (mouse, UniProt P01027 25-666; P01027 749-1663, limits assumed); assay: ELISA, mouse C3b immobilised on the plate; no upper plateau in the range shown
Source text: (§1) Specifically, a human C3b protein was immobilized on a plate, and C1.01, C1.02, C1.03, and C1.04, and hIgG1 as a control were bound thereto. Next, an anti-human immunoglobulin G antibody and an anti-horseradish peroxidase (HRP) antibody were sequentially bound thereto. Moreover, a mouse C3b protein was immobilized on a plate, and C1.01m to C1.03m containing mouse CRIg were bound to mouse C3b.

mouse C3b [2] = target: T1, mouse C3b; assay: Biacore SPR, 1:1 fit; analyte series 0.78125-50 nM; the analyte is not printed on the sheet, mouse C3b by legend paragraph 26 and the C3b dilution series of paragraph 225
Method: (§2) A C3b stock solution was diluted to 50 nM using a 1×HBS-EP+ buffer. Human VEGF165 was diluted to 5 nM using a 1×HBS-EP+ buffer. The 50 nM and 5 nM solutions were then diluted to 0.78125 nM and 0.078125 nM. In the sample step, the diluted antigens were injected into the flow cells at a rate of 30 μL/min. Two 0 nM antigens (1×HBS-EP+ buffer) were used and removed from the reference signal. Binding for 180 seconds and separation for 400 seconds were performed. After the separation time, a stabilization step for 60 seconds was performed. In the regeneration step, 10 mM glycine (pH 1.5) was injected into the flow cells at a rate of 30 μL/min for 30 seconds, followed by a stabilization step for 60 seconds.
(§3) After subtracting the reference and 0 nM values from the sample values, binding kinetics were calculated using Biacore Insight Evaluation Software (Version 2.0.15.12933) and 1:1 binding model for curved fitting.

human VEGF165 = target: T2, human VEGF165 (human, UniProt P15692-4 27-191); assay: Biacore SPR; the analyte is not printed on the sheet, human VEGF165 by legend paragraph 26
T2 construct: also called human VEGF165 protein
T2 sequence (P15692 other isoform, or with tags, fused parts or gaps): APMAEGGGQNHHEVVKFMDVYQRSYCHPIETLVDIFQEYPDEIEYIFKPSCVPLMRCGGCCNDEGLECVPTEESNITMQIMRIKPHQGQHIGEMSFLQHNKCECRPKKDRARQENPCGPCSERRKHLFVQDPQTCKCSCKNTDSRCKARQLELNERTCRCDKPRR
Method: In order to measure the binding force of the fusion protein, the physical properties of the prepared fusion protein were analyzed using Biacore 8K (GE Healthcare, 29129951) instrument.
as §2, §3

mouse C3b [3] = target: T1, mouse C3b; assay: ELISA, mouse C3b immobilised on the plate; the printed value lies above the highest concentration shown (Log10 about 1.2), the curve reaches only OD450 about 1
Source text: as §1

T1 sequence (P01027 25-666 limits assumed, chain 1 of 2): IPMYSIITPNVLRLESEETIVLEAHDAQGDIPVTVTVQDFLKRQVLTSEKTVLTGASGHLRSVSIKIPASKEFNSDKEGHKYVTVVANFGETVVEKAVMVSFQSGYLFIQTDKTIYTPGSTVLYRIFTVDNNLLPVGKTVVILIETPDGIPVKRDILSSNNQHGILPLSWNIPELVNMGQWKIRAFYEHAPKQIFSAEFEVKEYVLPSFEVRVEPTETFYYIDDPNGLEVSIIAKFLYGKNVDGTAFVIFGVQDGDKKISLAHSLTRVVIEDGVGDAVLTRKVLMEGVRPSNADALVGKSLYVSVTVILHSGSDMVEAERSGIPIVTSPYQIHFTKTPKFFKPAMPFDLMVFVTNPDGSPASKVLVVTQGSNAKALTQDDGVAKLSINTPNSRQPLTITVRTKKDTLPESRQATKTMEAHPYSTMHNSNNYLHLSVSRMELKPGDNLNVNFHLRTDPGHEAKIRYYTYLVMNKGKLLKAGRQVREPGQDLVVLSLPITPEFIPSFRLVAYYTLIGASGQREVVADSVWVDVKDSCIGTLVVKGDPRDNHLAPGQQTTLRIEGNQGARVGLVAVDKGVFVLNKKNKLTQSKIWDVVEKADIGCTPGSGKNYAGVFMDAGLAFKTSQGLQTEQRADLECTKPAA
T1 sequence (P01027 749-1663 limits assumed, chain 2 of 2): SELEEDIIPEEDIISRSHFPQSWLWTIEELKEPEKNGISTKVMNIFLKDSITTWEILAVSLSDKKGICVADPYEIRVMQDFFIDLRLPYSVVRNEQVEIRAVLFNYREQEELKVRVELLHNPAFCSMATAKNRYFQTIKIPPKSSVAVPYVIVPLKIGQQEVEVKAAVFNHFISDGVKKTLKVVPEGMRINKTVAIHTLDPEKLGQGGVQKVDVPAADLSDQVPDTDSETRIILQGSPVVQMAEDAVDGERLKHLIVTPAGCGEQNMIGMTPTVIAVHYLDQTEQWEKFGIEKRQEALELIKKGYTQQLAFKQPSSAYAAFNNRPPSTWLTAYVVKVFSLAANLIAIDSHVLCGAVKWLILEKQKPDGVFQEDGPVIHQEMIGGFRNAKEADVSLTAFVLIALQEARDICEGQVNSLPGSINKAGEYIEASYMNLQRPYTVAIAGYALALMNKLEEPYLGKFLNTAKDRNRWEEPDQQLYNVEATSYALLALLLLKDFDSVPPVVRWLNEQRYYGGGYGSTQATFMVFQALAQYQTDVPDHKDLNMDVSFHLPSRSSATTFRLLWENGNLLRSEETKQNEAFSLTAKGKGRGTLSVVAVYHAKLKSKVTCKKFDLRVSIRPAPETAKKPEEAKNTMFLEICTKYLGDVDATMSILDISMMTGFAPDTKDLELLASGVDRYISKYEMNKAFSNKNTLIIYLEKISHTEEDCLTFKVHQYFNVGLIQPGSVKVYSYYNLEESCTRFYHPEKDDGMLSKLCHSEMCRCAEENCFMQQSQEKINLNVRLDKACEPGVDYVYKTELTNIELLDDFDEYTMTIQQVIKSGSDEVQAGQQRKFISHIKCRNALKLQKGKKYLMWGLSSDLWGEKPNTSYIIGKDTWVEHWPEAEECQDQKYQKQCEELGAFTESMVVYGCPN

B1: C1.01m (mu CRIg-mu IgG2a Fc DANG) (Fc fusion)
chain: HPTLKTPESVTGTWKGDVKIQCIYDPLRGYRQVLVKWLVRHGSDSVTIFLRDSTGDHIQQAKYRGRLKVSHKVPGDVSLQINTLQMDDRNHYTCEVTWQTPDGNQVIRDKIIELRVRKYNPPRINTEAPTTLHSSLEATTIMSSTSDLTTNGTGKLEETIAGSGRNLPGGGGSEPRGPTIKPCPPCKCPAPNLLGGPSVFIFPPKIKDVLMISLSPIVTCVVVAVSEDDPDVQISWFVNNVEVHTAQTQTHREDYGSTLRVVSALPIQHQDWMSGKEFKCKVNNKDLPAPIERTISKPKGSVRAPQVYVLPPPEEEMTKKQVTLTCMVTDFMPEDIYVEWTNNGKTELNYKNTEPVLDSDGSYFMYSKLRVEKKNWVERNSYSCSVVHEGLHNHHTTKSFSRTPGK
EC50 (mouse C3b [1]): 0.821 µg/mL
Kd (mouse C3b [2]): 0.987 pM

B2: C1.02m (mu CRIg-mu IgG2a Fc DANG-VEGF binder) (Fc fusion)
chain: HPTLKTPESVTGTWKGDVKIQCIYDPLRGYRQVLVKWLVRHGSDSVTIFLRDSTGDHIQQAKYRGRLKVSHKVPGDVSLQINTLQMDDRNHYTCEVTWQTPDGNQVIRDKIIELRVRKYNPPRINTEAPTTLHSSLEATTIMSSTSDLTTNGTGKLEETIAGSGRNLPGGGGSEPRGPTIKPCPPCKCPAPNLLGGPSVFIFPPKIKDVLMISLSPIVTCVVVAVSEDDPDVQISWFVNNVEVHTAQTQTHREDYGSTLRVVSALPIQHQDWMSGKEFKCKVNNKDLPAPIERTISKPKGSVRAPQVYVLPPPEEEMTKKQVTLTCMVTDFMPEDIYVEWTNNGKTELNYKNTEPVLDSDGSYFMYSKLRVEKKNWVERNSYSCSVVHEGLHNHHTTKSFSRTPGGGGGSGGGGSSDTGRPFVEMYSEIPEIIHMTEGRELVIPCRVTSPNITVTLKKFPLDTLIPDGKRIIWDSRKGFIISNATYKEIGLLTCEATVNGHLYKTNYLTHRQTNTIIDVVLSPSHGIELSVGEKLVLNCTARTELNVGIDFNWEYPSSKHQHKKLVNRDLKTQSGSEMKKFLSTLTIDGVTRSDQGLYTCAASSGLMTKKNSTFVRVHEK
EC50 (mouse C3b [1]): 1.85 µg/mL
Kd (mouse C3b [2]): 7.97 pM
binding result (human VEGF165): binds

B3: C1.03m (mu IgG2a Fc DANG-mu CRIg) (Fc fusion)
chain: EPRGPTIKPCPPCKCPAPNLLGGPSVFIFPPKIKDVLMISLSPIVTCVVVAVSEDDPDVQISWFVNNVEVHTAQTQTHREDYGSTLRVVSALPIQHQDWMSGKEFKCKVNNKDLPAPIERTISKPKGSVRAPQVYVLPPPEEEMTKKQVTLTCMVTDFMPEDIYVEWTNNGKTELNYKNTEPVLDSDGSYFMYSKLRVEKKNWVERNSYSCSVVHEGLHNHHTTKSFSRTPGGGGGSGGGGSHPTLKTPESVTGTWKGDVKIQCIYDPLRGYRQVLVKWLVRHGSDSVTIFLRDSTGDHIQQAKYRGRLKVSHKVPGDVSLQINTLQMDDRNHYTCEVTWQTPDGNQVIRDKIIELRVRKYNPPRINTEAPTTLHSSLEATTIMSSTSDLTTNGTGKLEETIAGSGRNLPG
EC50 (mouse C3b [3]): 31.1 µg/mL
